Assay results reported in patent US20220313780A1, “METHODS AND COMPOSITIONS FOR TREATING INFLAMMATORY CONDITIONS” (THE SCRIPPS RESEARCH INSTITUTE, priority 2019, published 2022).

Target: T1, EPCR (Homo sapiens, UniProt Q9UNN8)
T1 construct: endogenous in cells; host or cells: THP1-null (wildtype) cells, PMA-differentiated
T1 sequence (Q9UNN8 18-238): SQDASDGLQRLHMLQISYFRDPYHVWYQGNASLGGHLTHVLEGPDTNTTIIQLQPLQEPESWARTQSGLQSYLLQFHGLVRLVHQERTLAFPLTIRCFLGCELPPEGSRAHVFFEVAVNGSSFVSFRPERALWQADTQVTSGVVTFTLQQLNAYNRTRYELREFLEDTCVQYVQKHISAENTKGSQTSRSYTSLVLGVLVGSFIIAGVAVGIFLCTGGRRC
Assay: Caspase 1 activity assay in THP1 cells after blocking EPCR with antibody RCR-252
Format: cell-based
Conditions: RCR-252 50 μg/mL before APC 4 μg/mL, TR47 50 μM or P3R 50 μM
Procedure: THP1 or (A) NLRP3 deficient cells (THP1-defNLRP3) cells were plated at a final concentration of 1×10^6/mL in 96 well plates and incubated with PMA (0.5 μM) for 3 hours 37° C. in supplemented RPMI. Media was subsequently changed every 24 hours for 3 days. In brief, selected wells were treated with APC (4 μg/mL), TR47 (50 μM) or P3R (50 μM) for 1 hour, washed with DPBS, and incubated with LPS (1 μg/mL) for 3 hours at 37° C. in serum-free RPMI. After a DPBS wash, cells were incubated with ATP (5 mM) in the presence or absence of 10 μM YVAD (caspase 1 inhibitor) or 2.5 μM ZVAD (pan-caspase inhibitor) for 45 minutes at 37° C. […] Again, cells were washed with DPBS and incubated with ATP (5 mM) in the presence or absence of 10 μM YVAD (caspase 1 inhibitor) or 2.5 μM ZVAD (pan-caspase inhibitor) for 45 minutes prior to performing the caspase 1 activity following manufacturer's directions measuring luminescence. […] After a DPBS wash, cells were incubated with ATP (5 mM) in the presence or absence of 10 μM YVAD (caspase 1 inhibitor) or 2.5 μM ZVAD (pan-caspase inhibitor) for 45 minutes at 37° C., prior to performing the caspase 1 activity assay following manufacturer's directions measuring luminescence (relative luminescent units, RLU). […]

Sequence	effect of blocking EPCR on inhibition of caspase 1 activity
GAPPNSFEEFPFSALEGWTGATIT [P3R, PAR3-derived 24-mer peptide]	though trending, did not reach significance
NPNDKYEPFWEDEEKNESGL [TR47, PAR1-derived 20 amino acid peptide]	significant loss in their inhibition of caspase 1 activity
